Experimental data: US20040091487A1

Legend:
Test in all cases: cell-based or functional assay
[1] = biological target: HIV-1 IN within Gag-Pol (Gag-Pol polyprotein encoded by pCMVDR8.2) (HIV-1)
[2] = biological target: HIV-1 IN within Gag-Pol of the molecular clone HIV-1R3B (HIV-1)
[3] = biological target: HIV-1 IN H12Y within Gag-Pol (pCMV-H12Y) (HIV-1)

Substance: HA-E3 (from UniProt Q12824 183-294)
- decrease in the viral titers as compared to the control [1]: 2 fold
- inhibition of p24 production [1]: 2 fold

Substance: HA-INI1 aa 1-245 (clone 27B) (from UniProt Q12824 1-245)
- % inhibition [1]: 16%
- P24 of culture supernatants [1]: 95.6 ng/mL

Substance: HA-INI1 aa 141-385 (clone 20.2) (from UniProt Q12824 141-385)
- % inhibition [1]: 69%
- P24 of culture supernatants [1]: 35.4 ng/mL

Substance: HA-S6 (HA-INI1 aa 183-294) (from UniProt Q12824 183-294)
- % inhibition [2]: > 99.7%
- p24 of culture supernatants [2]: 0.69 ng/mL
- % inhibition [1]: 100%
- P24 of culture supernatants [1]: 0 ng/mL
- inhibition of p24 production [1]: 80000 fold
- decrease in the level of H12Y virion associated p24 production [3]: 10 fold
